According to the supplement of paper PMC10126150:
± gives the standard deviation of the averaged measurements.

Test system: ATP
Assay: switch fluorescence ratio, 500 uM ATP over buffer (Cy3 cluster intensity, sum of 5 cycles each) (fold (ratio)); higher = stronger signal-on switching upon ATP binding; sequences stand for … in TCGTCGGCAGCGTCAGATGTGTATAAGAGACAGTTTTTTTTTTTTTTTTTTTTTTTTT…TC
Details: aptamer strand: ATP DNA aptamer (quencher-CACCTGGGGGAGTATTGCGGAGGAAGG + anchor), 100 nM annealed; ATP concentration: 500 uM
Method in brief: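 Per cluster, summed Cy3 intensity from the target cycles was divided by that from the buffer cycles to give the fluorescence ratio, then averaged per switch-domain sequence. Clusters outside 100-1000 RFU were excluded. The Cy3-labelled switching-strand clusters, on a modified Illumina MiSeq flow-cell, were annealed to 100 nM quencher-labelled ATP aptamer and imaged in selection buffer, then after 15 min with 500 uM ATP at 22 °C, for five cycles with NaOH stripping and re-annealing between them.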
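Note: ATP exposure 15 min at 22 °C before imaging.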

Row | Sequence | switch fluorescence ratio
1 | AAATGGTGGG | 1.13 ± 0.16
2 | AAATGTATGT | 0.988 ± 0.037
3 | AAATGTGCTG | 1 ± 0.024
4 | AAATGTGGGG | 0.976 ± 0.049
5 | AAATGTGTAG | 0.977 ± 0.024
6 | AAATGTTCAC | 0.996 ± 0.034
7 | AAATGTTTTT | 0.999 ± 0.028
8 | AAATTAGCTT | 0.987 ± 0.084
9 | AAATTATCGG | 1 ± 0.042
10 | AAATTCAATA | 1.002 ± 0.0033
11 | AAATTCCGGG | 1.02 ± 0.035
12 | AAATTCCTAC | 1.01 ± 0.015
13 | AAATTCGAAG | 0.982 ± 0.011
14 | AAATTCGCGT | 1.01 ± 0.015
15 | AAATTCGGGG | 0.959 ± 0.037
16 | AAATTCGTTA | 0.983 ± 0.048
17 | AAATTGAACT | 1.03 ± 0.017
18 | AAATTGCGAG | 1.005 ± 0.0033
19 | AAATTGCGGG | 0.994 ± 0.048
20 | AAATTGCTTA | 1 ± 0.024
21 | AAATTGGAAG | 1.05 ± 0.078
22 | AAATTGGGAG | 1.016 ± 0.0026
23 | AAATTGTTG | 1.022 ± 0.0087
24 | AAATTTACCG | 1.05 ± 0.015
25 | AAATTTAGTA | 0.99 ± 0.018

Row | Sequence | switch fluorescence ratio
26 | AAATTTTTCT | 1.05 ± 0.07
27 | AAATTTTTTT | 0.996 ± 0.054
28 | AACAAGGGGG | 1.01 ± 0.013
29 | AACACAGCTC | 1.02 ± 0.024
30 | AACACCTCTC | 1.1 ± 0.07
31 | AACACGGGTA | 1.02 ± 0.055
32 | AACAGAGTTT | 1.02 ± 0.026
33 | AACAGCGGGA | 1.08 ± 0.068
34 | AACAGCGGGC | 1.03 ± 0.084
35 | AACAGCTGTG | 0.998 ± 0.013
36 | AACAGGAAGC | 1.01 ± 0.017
37 | AACAGGGCAC | 1.018 ± 0.0051
38 | AACAGGGGGG | 1.02 ± 0.081
39 | AACAGTAGGG | 1.03 ± 0.012
40 | AACAGTGTAT | 1.01 ± 0.03
41 | AACAGTTGAA | 1.0083 ± 0.00099
42 | AACATGTTGG | 0.991 ± 0.047
43 | AACCACTCAT | 1.02 ± 0.053
44 | AACCAGTATA | 0.995 ± 0.024
45 | AACCATTTGG | 0.9825 ± 0.0046
46 | AACCGATGCT | 1.094 ± 0.005
47 | AACCGATGTG | 1.01 ± 0.037
48 | AACCGGTAAT | 1.01 ± 0.022
49 | AACCGGTTAG | 0.996 ± 0.011
50 | AACCGTAGTC | 1.15 ± 0.049

Row | Sequence | switch fluorescence ratio
51 | AACCGTGTGT | 0.994 ± 0.013
52 | AACCGTTTTG | 0.979 ± 0.011
53 | AACCTGGGCC | 1.19 ± 0.099
54 | AACCTTGTCC | 1.61 ± 0.11
55 | AACCTTTTCA | 1.067 ± 0.0026
56 | AACCTTTTTA | 1.01 ± 0.045
57 | AACGAAAGGC | 1.19 ± 0.012
58 | AACGAGGGTC | 1.01 ± 0.049
59 | AACGAGTGTC | 1.09 ± 0.11
60 | AACGATCTTT | 0.9979 ± 0.0084
61 | AACGCGCGCC | 1.01 ± 0.05
62 | AACGCGGTAT | 1.03 ± 0.095
63 | AACGGAGTGG | 1 ± 0.042
64 | AACGGATCGG | 0.998 ± 0.025
65 | AACGGATGAG | 0.987 ± 0.038
66 | AACGGCCATG | 1.02 ± 0.037
67 | AACGGCGTGA | 1.08 ± 0.14
68 | AACGGCTCTT | 1.03 ± 0.074
69 | AACGGGGCTC | 1.04 ± 0.066
70 | AACGGGGGA | 0.9916 ± 0.0024
71 | AACGGGTCTA | 1.01 ± 0.035
72 | AACGGGTGCA | 0.9896 ± 0.0011
73 | AACGGTAGTG | 1.09 ± 0.03
74 | AACGGTGATT | 1.01 ± 0.07
75 | AACGGTGTTT | 1.03 ± 0.045

Row | Sequence | switch fluorescence ratio
76 | AACGTCTTTG | 0.9977 ± 0.0033
77 | AACGTGTACG | 1.01 ± 0.065
78 | AACGTTAAAT | 1.01 ± 0.037
79 | AACGTTAGGG | 0.998 ± 0.029
80 | AACGTTCCTG | 1.35 ± 0.11
81 | AACGTTGGTA | 0.989 ± 0.034
82 | AACTAATCGC | 1.03 ± 0.029
83 | AACTACTTTG | 1 ± 0.03
84 | AACTAGAGTT | 0.99 ± 0.014
85 | AACTATAAAA | 1 ± 0.014
86 | AACTATCTTT | 1.04 ± 0.033
87 | AACTATGATG | 0.996 ± 0.03
88 | AACTATGGTA | 0.992 ± 0.033
89 | AACTCACTTT | 1.09 ± 0.02
90 | AACTCAGATT | 1.01 ± 0.026
91 | AACTCAGGGG | 1.29 ± 0.067
92 | AACTCATATT | 0.959 ± 0.013
93 | AACTCGACCC | 1.05 ± 0.05
94 | AACTGACGGA | 1.14 ± 0.026
95 | AACTGCAAGT | 0.993 ± 0.027
96 | AACTGCTGTA | 0.999 ± 0.02
97 | AACTGGACTT | 1.11 ± 0.042
98 | AACTGGGAGA | 0.98933 ± 0.0002
99 | AACTGGGGA | 0.967 ± 0.015
100 | AACTGGGGC | 0.959 ± 0.062

Row | Sequence | switch fluorescence ratio
101 | AACTGGTTG | 0.9804 ± 0.009
102 | AACTTGGGGA | 0.9657 ± 0.0061
103 | AACTTGTCGA | 0.886 ± 0.047
104 | AACTTTGACC | 1.034 ± 0.0014
105 | AACTTTGTTT | 0.9832 ± 0.0047
106 | AAGAAAAAGG | 0.993 ± 0.036
107 | AAGAAACACA | 1.02 ± 0.038
108 | AAGAAACTTC | 1.007 ± 0.0024
109 | AAGAAATCTC | 1.04 ± 0.11
110 | AAGAAATTAC | 1.06 ± 0.028
111 | AAGAACTATA | 1.09 ± 0.023
112 | AAGAAGATCA | 0.975 ± 0.016
113 | AAGAAGGCGG | 0.9845 ± 0.0069
114 | AAGAAGGGAT | 0.953 ± 0.016
115 | AAGAATATTT | 1.01 ± 0.012
116 | AAGACAGTGC | 0.9932 ± 0.0059
117 | AAGACCGGGA | 1.01 ± 0.04
118 | AAGACGGATT | 0.9945 ± 0.0066
119 | AAGACGGGCT | 1.01 ± 0.037
120 | AAGACTTGGG | 1.05 ± 0.029
121 | AAGAGACCTT | 1.28 ± 0.026
122 | AAGAGAGGTG | 1.07 ± 0.014
123 | AAGAGATATA | 1.008 ± 0.0037
124 | AAGAGCGAGT | 1 ± 0.011
125 | AAGAGCGGGA | 0.989 ± 0.041

Row | Sequence | switch fluorescence ratio
126 | AAGAGCGGTG | 0.952 ± 0.0049
127 | AAGAGGAAGG | 0.9709 ± 0.0027
128 | AAGAGGACGA | 1.01 ± 0.028
129 | AAGAGGAGCG | 0.9668 ± 0.0078
130 | AAGAGGCGCT | 0.995 ± 0.05
131 | AAGAGGCGGG | 1 ± 0.019
132 | AAGAGGGATT | 0.983 ± 0.03
133 | AAGAGGGCAT | 1.01 ± 0.022
134 | AAGAGGGGGG | 0.999 ± 0.053
135 | AAGAGGTGTT | 1.04 ± 0.071
136 | AAGAGTTGCC | 1.07 ± 0.12
137 | AAGATAACGG | 1.07 ± 0.048
138 | AAGATAATAG | 0.993 ± 0.024
139 | AAGATAGAAA | 1.01 ± 0.013
140 | AAGATATGAT | 0.989 ± 0.032
141 | AAGATCATAA | 0.994 ± 0.019
142 | AAGATGGTCA | 0.993 ± 0.036
143 | AAGATGTTGG | 1.01 ± 0.04
144 | AAGATTGGTG | 0.991 ± 0.041
145 | AAGATTGTTT | 0.986 ± 0.033
146 | AAGCAGCCGG | 0.99 ± 0.046
147 | AAGCAGCTGT | 1.01 ± 0.034
148 | AAGCAGTAGC | 1.05 ± 0.0043
149 | AAGCATCATT | 1.0176 ± 0.00039
150 | AAGCATGCTC | 1.09 ± 0.03

Row | Sequence | switch fluorescence ratio
151 | AAGCCCGGGG | 1.02 ± 0.025
152 | AAGCCCTAGC | 0.976 ± 0.036
153 | AAGCCGTGTG | 0.988 ± 0.042
154 | AAGCCTTAAA | 1.06 ± 0.011
155 | AAGCGAGGTC | 1.05 ± 0.021
156 | AAGCGCCCGG | 1.05 ± 0.04
157 | AAGCGGAGGG | 1.02 ± 0.062
158 | AAGCGGGGAC | 1.07 ± 0.013
159 | AAGCGGGTTT | 0.96 ± 0.03
160 | AAGCGTGGGA | 1.02 ± 0.039
161 | AAGCGTGGGG | 1.02 ± 0.025
162 | AAGCGTTGTG | 0.9984 ± 0.008
163 | AAGCTCCTCT | 1.03 ± 0.032
164 | AAGCTGAGAA | 1.016 ± 0.0071
165 | AAGCTTCGGG | 1.06 ± 0.029
166 | AAGCTTTGTG | 0.9786 ± 0.0076
167 | AAGGAAGGGG | 1.14 ± 0.2
168 | AAGGAAGTGG | 0.99 ± 0.022
169 | AAGGAATAGG | 0.98 ± 0.016
170 | AAGGACAGGA | 1.03 ± 0.026
171 | AAGGACGCCT | 1.03 ± 0.0041
172 | AAGGAGACTA | 1.02 ± 0.05
173 | AAGGAGAGTG | 0.991 ± 0.028
174 | AAGGAGGGAT | 1 ± 0.036
175 | AAGGAGTTGC | 0.9733 ± 0.0062

Row | Sequence | switch fluorescence ratio
176 | AAGGATAGAT | 0.985 ± 0.025
177 | AAGGATAGGC | 1 ± 0.013
178 | AAGGATGGGG | 0.98 ± 0.022
179 | AAGGATGTAT | 0.969 ± 0.036
180 | AAGGATTATG | 1 ± 0.07
181 | AAGGATTATT | 0.97 ± 0.024
182 | AAGGCAGGCG | 0.977 ± 0.096
183 | AAGGCATCAG | 0.9915 ± 0.0045
184 | AAGGCGAGGT | 0.994 ± 0.022
185 | AAGGCGCGTG | 1.01 ± 0.045
186 | AAGGCGTGAG | 1.02 ± 0.016
187 | AAGGCTAGGA | 1 ± 0.036
188 | AAGGCTGATG | 0.983 ± 0.017
189 | AAGGCTGTGT | 1.001 ± 0.0095
190 | AAGGCTTGAT | 0.9998 ± 0.0081
191 | AAGGCTTTTT | 0.9935 ± 0.0077
192 | AAGGGAACAA | 0.999 ± 0.048
193 | AAGGGAAGTG | 0.982 ± 0.069
194 | AAGGGAATTT | 1.17 ± 0.36
195 | AAGGGAGGCG | 1.14 ± 0.2
196 | AAGGGAGGGG | 0.987 ± 0.028
197 | AAGGGAGGTT | 1 ± 0.027
198 | AAGGGATGCT | 1 ± 0.011
199 | AAGGGCCGGG | 0.967 ± 0.029
200 | AAGGGCCTGC | 0.9723 ± 0.0039
